Assay results from PMC10244618.
Where “and” joins values, the source holds several entries; their conditions need not be identical. Equal entries are not always repeated.

B1: NF2 (merlin) isoform 7, human, full length (507 aa, lacks exons 2-3 = isoform-1 residues 39-121; exon-16 C-terminus), P35240-4 (parent)
chain: MAGAIASRMSFSSLKRKQPKTFTVRIVTMDAEMEFNCEVKKQILDEKIYCPPEASVLLASYAVQAKYGDYDPSVHKRGFLAQEELLPKRVINLYQMTPEMWEERITAWYAEHRGRARDEAEMEYLKIAQDLEMYGVNYFAIRNKKGTELLLGVDALGLHIYDPENRLTPKISFPWNEIRNISYSDKEFTIKPLDKKIDVFKFNSSKLRVNKLILQLCIGNHDLFMRRRKADSLEVQQMKAQAREEKARKQMERQRLAREKQMREEAERTRDELERRLLQMKEEATMANEALMRSEETADLLAEKAQITEEEAKLLAQKAAEAEQEMQRIKATAIRTEEEKRLMEQKVLEAEVLALKMAEESERRAKEADQLKQDLQEAREAERRAKQKLLEIATKPTYPPMNPIPAPLPPDIPSFNLIGDSLSFDFKDTDMKRLSMEIEKEKVEYMEKSKHLQEQLNELKTEIEALKLKERETALDILHNENSDRGGSSKHNTIKKPQAQGRRPICI

Variants of: B1
Test: reverse yeast two-hybrid deep mutational scan (rY2H-seq): NF2 isoform 7 mutant library as bait mated with wild-type prey strains; selection on medium lacking adenine for non-interacting pairs; NextSeq paired-end sequencing; enrichment vs …
Conditions: with KDM1A (lysine-specific histone demethylase 1A; the table's label AOF2 is a gene synonym of KDM1A), O60341; yeast diploids after mating (RBait_S3 x RPrey_S3), 30 °C, selection for reporter genes on NB agar; human ABL2 co-expressed as the kinase-dead K35M mutant …; HIGHER = WEAKER BINDING (the opposite of display enrichments): higher = stronger loss of interaction: reverse Y2H selects yeast in which bait and prey do NOT interact (growth without adenine), so a …; hits-only table; scale: rY2H score; numbering: uniprot, sequence starts at 1

Row | Variant | enrichment
1 | Q370A | 1.45 and 2.01
2 | D484K | 4.88
3 | A312L | 3.21
4 | E282K | 1.54
5 | K313L | 2.56
6 | M262I | 1.81
7 | G78K | 1.76
8 | E337L | 1.6
9 | E309L | 1.9
10 | L353A | 2.32
11 | D71K | 5.71
12 | A59S | 4.04
13 | S361P | 2
14 | S361A | 5
15 | R383A | 1.83
16 | R248C | 1.52
17 | L417I | 4.11
18 | L417E | 2.45
19 | D411C | 2.42
20 | K460L | 4.85
21 | E362L | 2.21
22 | Q250D | 1.46
23 | Q250L | 2.08
24 | E311L | 2.66
25 | R228G | 8.73
26 | A354L | 3.5
27 | A290V | 1.65

Row | Variant | enrichment
28 | T168D | 2.37
29 | T168P | 1.77
30 | P410K | 9.12 and 4.16
31 | P410R | 1.58
32 | V352S | 3.21
33 | R363G | 1.89
34 | E123L | 1.42
35 | E472A | 3.64
36 | R471A | 3.18
37 | M122A | 3.3
38 | A385E | 2.26 and 2.39
39 | E187K | 1.65
40 | K386T | 5.27
41 | R25E | 3.64 and 8.74
42 | E382A | 2.37
43 | G501C | 1.59
44 | L300P | 4.3
45 | R379C | 2
46 | Y67A | 3.02
47 | G486D | 1.52
48 | M238I | 2.35
49 | H112A | 2.37
50 | P407K | 4.15
51 | P407T | 2.05
52 | I160C | 1.87
53 | L422A | 2.07

Same assay, conditions: with EMILIN1 (elastin microfibril interfacer 1), Q9Y6C2; yeast diploids after mating (RBait_S3 x RPrey_S3), 30 °C, selection for reporter genes on NB agar; human tyrosine kinase ABL2 co-expressed as the active kinase …; HIGHER = WEAKER BINDING (the opposite of display enrichments): higher = stronger loss of interaction: reverse Y2H selects yeast in which bait and prey do NOT interact (growth without adenine), so a …; hits-only table; scale: rY2H score; numbering: uniprot, sequence starts at 1

Row | Variant | enrichment
54 | D484K | 2.87
55 | K469A | 5.72
56 | P399R | 2.33
57 | P399K | 1.52
58 | E464L | 1.85
59 | R383A | 1.5 and 2.77
60 | R383K | 2.82
61 | L417I | 8.54
62 | K460E | 6.17
63 | K395Q | 1.8
64 | F415A | 1.74
65 | D425L | 3.06
66 | P410K | 1.53
67 | T397L | 2.34
68 | R471G | 1.53
69 | K386T | 7.62
70 | K386Q | 2.16
71 | N416T | 2.76
72 | N416A | 6.7
73 | N416R | 3.29
74 | E382A | 1.65
75 | S483E | 1.84
76 | G419L | 2.72
77 | T429K | 5.25
78 | P407K | 2.11
79 | P407R | 4.09
80 | L422A | 1.78

Same assay, conditions: with KDM1A (lysine-specific histone demethylase 1A; the table's label AOF2 is a gene synonym of KDM1A), O60341; yeast diploids after mating (RBait_S3 x RPrey_S3), 30 °C, selection for reporter genes on NB agar; human tyrosine kinase ABL2 co-expressed as the active kinase …; HIGHER = WEAKER BINDING (the opposite of display enrichments): higher = stronger loss of interaction: reverse Y2H selects yeast in which bait and prey do NOT interact (growth without adenine), so a …; hits-only table; scale: rY2H score; numbering: uniprot, sequence starts at 1

Row | Variant | enrichment
81 | K469A | 3
82 | R341A | 8.79
83 | D130A | 1.54
84 | A140G | 1.91
85 | S421K | 2.61
86 | I105C | 1.42
87 | M262D | 5.37
88 | G78K | 5.27
89 | L57A | 3.5
90 | E309K | 1.97
91 | E309L | 1.51
92 | K304P | 1.4
93 | K304A | 3.58
94 | D299E | 1.51
95 | Q82D | 1.58
96 | A59V | 1.61
97 | S361A | 2.29 and 3.4
98 | R335L | 3.71
99 | R335S | 1.9
100 | R89K | 1.9

Row | Variant | enrichment
101 | A54V | 3.45
102 | P396S | 1.47
103 | L417E | 3.12
104 | E38K | 1.85
105 | D411A | 2.4 and 1.53
106 | Q250D | 1.65
107 | T394A | 1.4
108 | E311K | 1.67 and 1.4
109 | E311L | 5.65
110 | A354L | 3.78
111 | A333E | 2.04
112 | F200S | 3.89
113 | E321L | 3.26
114 | R363L | 1.9
115 | T397I | 4.78
116 | A385E | 2.59 and 2.4
117 | H221Y | 2.24
118 | V56L | 1.8
119 | M96V | 1.61
120 | M96I | 1.63

Row | Variant | enrichment
121 | L301A | 2
122 | K126E | 22.9
123 | E121A | 1.59
124 | S483E | 1.8 and 1.81
125 | Y398K | 2.43
126 | R379C | 2.04
127 | M286A | 1.89
128 | D162Y | 2.15
129 | S55F | 3.58
130 | G419E | 4.86
131 | P163E | 4.05
132 | T429K | 11.2
133 | P407K | 2.54
134 | P407A | 2.33
135 | P407L | 1.77 and 2.01
136 | R243K | 1.55
137 | E349P | 2.41
138 | I160K | 3.84 and 4.07
139 | I404D | 7.96

Same assay, conditions: with NF2 C-terminal domain (wild type; homomeric NF2-NF2 interaction), P35240; yeast diploids after mating (RBait_S3 x RPrey_S3), 30 °C, selection for reporter genes on NB agar; human ABL2 co-expressed as the kinase-dead K35M mutant …; HIGHER = WEAKER BINDING (the opposite of display enrichments): higher = stronger loss of interaction: reverse Y2H selects yeast in which bait and prey do NOT interact (growth without adenine), so a …; hits-only table; partner unresolved; scale: rY2H score; numbering: uniprot, sequence starts at 1

Row | Variant | enrichment
140 | K469A | 2.32 and 4.81
141 | V27L | 2.04
142 | A312K | 2.34
143 | A140G | 1.75
144 | S421K | 2.24
145 | K313L | 2.4
146 | I105C | 1.42 and 1.58
147 | R293K | 7.18
148 | M262D | 6.41
149 | Q376A | 5.78
150 | E309K | 1.83
151 | Q236A | 2.27
152 | L353K | 3.06
153 | E132K | 5.61
154 | E132L | 1.84
155 | R383K | 1.66
156 | R248L | 2.23
157 | K460E | 3.55
158 | Q261E | 1.7
159 | L291E | 2.16

Row | Variant | enrichment
160 | R113G | 1.5
161 | F415A | 2.73
162 | E321A | 1.62
163 | R363L | 2.55
164 | Q373K | 1.92
165 | M122A | 2.37
166 | A385E | 2.06
167 | E377L | 1.63
168 | E83K | 18.2
169 | E382A | 2.83
170 | L301A | 1.81
171 | D69L | 1.7
172 | K126L | 1.8 and 2.78
173 | S73P | 2.96
174 | L348A | 4.71
175 | M238A | 4.02
176 | P163E | 2.31
177 | I160K | 1.71 and 3.21
178 | I160A | 1.61

Same assay, conditions: with PIK3R3 (phosphatidylinositol 3-kinase regulatory subunit gamma), Q92569; yeast diploids after mating (RBait_S3 x RPrey_S3), 30 °C, selection for reporter genes on NB agar; human tyrosine kinase ABL2 co-expressed as the active kinase …; HIGHER = WEAKER BINDING (the opposite of display enrichments): higher = stronger loss of interaction: reverse Y2H selects yeast in which bait and prey do NOT interact (growth without adenine), so a …; hits-only table; scale: rY2H score; numbering: uniprot, sequence starts at 1

Row | Variant | enrichment
179 | A312K | 2
180 | M262D | 15.7
181 | E309K | 3.02
182 | A59V | 2.52
183 | S361P | 3.03
184 | L417E | 2.19
185 | K460L | 10.6
186 | T394A | 2.14
187 | R228G | 15.3
188 | A290V | 2.94
189 | E321L | 3.49
190 | A385E | 4.1
191 | E382A | 3 and 1.89
192 | G501C | 1.45
193 | V56L | 1.92
194 | S483E | 3.26
195 | L348A | 2.29
196 | M238I | 2.66
197 | P407K | 2.65
198 | P407T | 2.62
199 | I160C | 1.68
